Experimental findings from the DeepSol protein solubility set are described below.

The nature of the series: soluble on expression in E. coli; label from the status in PepcDB or PDB records.
For “MAGAKHIIDTSFLTQLDRYAIPLSRRVTAVHTGSHQSTRTGAGLDIIDHRKYNQGDSLKRIDWNLYARTEKLYIRRFEEDKNLNMVILLDASSSMLFPDNTPNKFEYAATVAAGVSYIVMKHNDVYTIATFADDVDYTKSHKGRDDFLRTIDNLTQIPVSGTTKLADCADSIYPRIKSKSMVLIMSDFLDNLDSVQKAVNRLSRHELVIVHIYDENEINLPESVDGTVKFIDSETGEEISFTVGAGFKKEYASEYSKHMAELEKIAYDFKIPYFRVSIKNEPFDTVLKIIGEG”, the “soluble on expression in E. coli” value is reported as “not soluble”.

Consider “MRTRLLAILLAVWPAACATAEPACRDLTFEDTRYSLCEAQAGDDIRIFQTAPDGRPYGSFERINSALEGEGRQLAFAMNAGMYHADRRPVGLLIEEEVERAPLVTSAGPGNFGLLPNGVFCVGDGFRVIESRAFAAERPTCRHASQSGPMLVIGGELHPRFLVDSDSRYIRNGVGVSADGRRAVFAISNRPVTFHEFGRLFRDELGLPEALYFDGSISRLYDRGARRSDWGTPMGPIVGLVVPKPLEHHHHHH”, for which the “soluble on expression in E. coli” value is listed as “not soluble”.

As for “MGSDKIHHHHHHMEIKCIITDDEPIARKGLRRHIGKIDFLTIVGECEDAIQLNNMLNSVQADLLFLDIEMPDMSGLDFLESAQNAPKVIITSAYERYALRGYEFDVVDYLLKPISFSRFLKSVNKAHALMESTSKSEEPAYIFVKTEKQLKRLYLKEIQFIEGMENYIVIHTLTSKEIVHLRLKSIQETLPAQIFMQVHRSFIVNLSYVQAIEGNLLIIGEHKIPVSRPLREEVYKSIVNNQLIQR”, the “soluble on expression in E. coli” value is “not soluble”.

In the case of “MKDFWTWERLSFHMVLAYNDDRSFLINTGMPLDLTLRNQEMKKFAGDRAIFRSEDSIEMLRKAGFTPDDIDYVALTPVQDYTIGRLNEFRKSKIFIFRDGWIKDIAAPAYAYFHNRDLFIPKNIFDFVYGEGWKNIIFYDGETELVPGIRAIPVGCHHRSSVAFAINAKDGTYVFTDASFKAENVRNRIPIGIAENIYECLSAYEKIEKIGKLLPAYDPAIDDLYIKLEHHHHHH”, the “soluble on expression in E. coli” value is “soluble”.

“MGSDKIHHHHHHMNQATRNVLWMTGIKKSFSGVPALWGVDFELKAGEIHALVGENGAGKSTLIKIMTGAYRRDSGVMEYDQKTVAFENPIQAQAAGIVAVYQEIQLVGLRTVAENIFLSREPNRFGIIDRRAMNARAADILKRLGLHIDPHSVVGSLNIAHRQMVAIARAISFGARVLILDEPTSSLTKTEVSVLFDVMRRLKSEGTSIVYISHRFEELYTVCDRVTVLRDGRNIVTRSLSMLTRLELVCFMLGRKPEEVSKRVTAFARQSQNMLGQPVLLQAEALKYKKRLNGVSIEVQHGEIVGLAGLLGSGRSETVRALFGAEPLEGGTVKLEGSLLSLRDPHDAIDAGIAFLSEDRKADGIIPELSVRENLTLAALPNLTQWGIVSKKRQSELALRFMERLDIKAASIEQKIRFYTNSGCNYDSSDRGSFLLYPLYAFRPSYRCSRRQRGGCTACGYPCGAREIYSLYN”: the “soluble on expression in E. coli” value is recorded as “not soluble”.

“GGTKTAAEAAAPAVHPVSGLQIVPVTVTGTSGRHVFRSELARTSAEQAKGLMFRTELGDEEGMIFLRNPPDMATFWMRNTVIPLDIIFVGLDRRVMNIAANAVPYDETPLPAAGPTLAVLEINGGLAARLGIKPGDKVEW”: the “soluble on expression in E. coli” value is listed as “soluble”.

In the case of “NKNFSWNVNFNLTHFKNKVLELSPELNGQLIDGARIYREDESMYQLYLPKYVGVDSETGESLWALVTPDENGNTVTKSYSVASENRFASGDILPKVYGGFGTSVTAYGFDLSVSFAYQLGGRILDYTYQGLMDVAATGSALHKDMLKAWTPENKNTDVPRMNINDQYTNRLTDRFLTSSDYLSLQNITLGYTLPKSLTRKMQIDGVRVFFVADNVALLTARKGLDPRQGYVAADNVYSPIRTISGGISLNF”, the “soluble on expression in E. coli” value is on record as “not soluble”.

Take “MGSDKIHHHHHHMNMLVRFFIMVSLLKQQLNKQLATEYLSVERLMAPVVRHYRVLPHDMGFRDHLPNYRYLSFIELNITNWLMACCHQKGIKNLGWIIAMQEMVYLKQIKFLDKMTVNSRVVGWDKKYVYFEHQFFVKNQLMAMGMTKFVLTNKQGKCATEVLDMTGEQLNEVIDTWSQHQVAIKSAKSTESTKAA”: the “soluble on expression in E. coli” value is “not soluble”.

Consider “MSQIMYNYPAMMAHAGDMAGYAGTLQSLGADIASEQAVLSSAWQGDTGITYQGWQTQWNQALEDLVRAYQSMSGTHESNTMAMLARDGAEAAKWGG”, for which the “soluble on expression in E. coli” value is given as “soluble”.
